In patent US20230235072A1 (DENALI THERAPEUTICS, published 2023):
Positions count from the first letter of the chain named.

T1: cynomolgus transferrin receptor (TfR) ectodomain (ECD) (cynomolgus, UniProt Q5RDH6 121-760 (Pongo abelii entry), biotinylated where captured on streptavidin)
T1 construct: also called cyno TfR; cynoTfR
T1 chain: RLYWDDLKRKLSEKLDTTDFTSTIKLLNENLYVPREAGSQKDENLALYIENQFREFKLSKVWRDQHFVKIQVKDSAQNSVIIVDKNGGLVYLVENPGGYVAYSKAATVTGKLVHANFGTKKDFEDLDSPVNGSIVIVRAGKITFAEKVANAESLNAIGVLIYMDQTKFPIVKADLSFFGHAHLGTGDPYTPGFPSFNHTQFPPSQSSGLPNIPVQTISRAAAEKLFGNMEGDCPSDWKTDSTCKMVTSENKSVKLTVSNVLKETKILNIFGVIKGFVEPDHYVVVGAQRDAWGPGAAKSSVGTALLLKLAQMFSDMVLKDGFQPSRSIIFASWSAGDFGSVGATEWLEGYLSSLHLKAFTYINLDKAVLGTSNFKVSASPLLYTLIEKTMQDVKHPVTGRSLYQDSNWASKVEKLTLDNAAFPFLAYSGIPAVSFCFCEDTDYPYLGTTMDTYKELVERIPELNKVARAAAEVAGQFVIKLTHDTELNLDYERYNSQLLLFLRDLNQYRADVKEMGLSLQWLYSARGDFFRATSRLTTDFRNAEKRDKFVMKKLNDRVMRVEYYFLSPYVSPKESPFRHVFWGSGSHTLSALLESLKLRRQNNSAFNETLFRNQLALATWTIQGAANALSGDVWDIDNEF

B1: Clone CH2C.3 (designed binder)
chain: PCPAPELLGGPSVFLFPPKPKDTLMISRTPEVTCVVVDPQTPPWEVKFNWYVDGVEVHNAKTKPREEEYYSNYRVVSVLTVLHQDWLNGKEYKCKVSNKALPAPIEKTISKAKGQPREPQVYTLPPSRDELTKNQVSLTCLVKGFYPSDIAVEWESNGQPENNYKTTPPVLDSDGSFFLYSKLTVDKSRWQQGNVFSCSVMHEALHNHYTQKSLSLSPGK
B2: Clone CH2C.5 (designed binder)
chain: B1 chain with P42V
B3: Clone CH2C.4 (designed binder)
chain: B1 chain with P39F, Q40R, T41G, S71H, N72D
B4: Clone CH2C.2 (designed binder)
chain: B1 chain with Q40P, T41S
B5: Clone CH2C.1 (designed binder)
chain: B1 chain with S71T, N72Y
B6: Clone CH2C.8 (designed binder)
chain: B1 chain with Q40A, T41F, S71Q
B7: Clone CH2C.6 (designed binder)
chain: B1 chain with Q40K, T41M, S71T, N72Y
B8: Clone CH2C.7 (designed binder)
chain: B1 chain with Q40P, T41V
notes: found on phage
B9: Clone CH3C.35.N390.1 (designed binder)
chain: PCPAPELLGGPSVFLFPPKPKDTLMISRTPEVTCVVVDVSHEDPEVKFNWYVDGVEVHNAKTKPREEQYNSTYRVVSVLTVLHQDWLNGKEYKCKVSNKALPAPIEKTISKAKGQPREPQVYTLPPSRDELTKNQVSLTCLVKGFYPSDIAVEWESYGTEWSNYKTTPPVLDSDGSFFLYSKLTVSKSEWQQGFVFSCSVMHEALHNHYTQKSLSLSPGK
B10: Clone CH3C.35.20.1.1 (designed binder)
chain: B9 chain with Y157F, N163S, S188E
B11: Clone CH3C.35.23.6.1 (designed binder)
chain: B9 chain with Y157F, S162V, S188E
B12: Clone CH3C.35.23.2.1 (designed binder)
chain: B9 chain with S162A
B13: Clone CH3C.35.23.1.1 (designed binder)
chain: B9 chain with Y157F, S188E
B14: Clone CH3C.35.S413 (designed binder)
chain: B9 chain with N163S
B15: Clone CH3C.35.23.3.1 (designed binder)
chain: B9 chain with S162V, S188E
B16: Clone CH2C.17 (designed binder)
chain: B1 chain with P39M, Q40L, T41W, P43V, W44P, E68V, Y70H, S71R, N72P
notes: modified Fc; found by yeast display, tested on phage with holo-Tf
B17: Clone CH2C.22 (designed binder)
chain: B1 chain with P39D, Q40D, T41L, P42T, P43F, W44Q, E68L, Y70V, S71T, N72P
notes: as for B16
B18: Clone CH3B.1 (designed binder)
chain: PCPAPELLGGPSVFLFPPKPKDTLMISRTPEVTCVVVDVSHEDPEVKFNWYVDGVEVHNAKTKPREEQYNSTYRVVSVLTVLHQDWLNGKEYKCKVSNKALPAPIEKTISKAKGQPRFDYVTTLPPSRDELTKNQVSLTCLVKGFYPSDIAVEWESNGQPENNYKTTPPVLDSDGSFFLYSKLTVDKSRWQQGNVFSCSVMHEALHNHYGFHDLSLSPGK
B19: Clone CH3B.4 (designed binder)
chain: B18 chain with D119E, Y120M
B20: Clone CH3B.3 (designed binder)
chain: B18 chain with D119E
B21: Clone CH3B.9 (designed binder)
chain: B18 chain with D119G, Y120M
B22: Clone CH3B.2 (designed binder)
chain: B18 chain with Y120M
B23: Clone CH3B.7 (designed binder)
chain: B18 chain with Y120I
B24: Clone CH3B.6 (designed binder)
chain: B18 chain with D119E, Y120I
B25: Clone CH3B.5 (designed binder)
chain: B18 chain with D119E, Y120L
B26: Clone CH3B.12 (designed binder)
chain: B18 chain with H212S
B27: Clone CH3B.11 (designed binder)
chain: B18 chain with D119G, Y120L

Target: T1, cynomolgus transferrin receptor (TfR) …
Experiment: ELISA, Fc-Fab fusion titrated on plate-coated cyno TfR; OD650
Source text: (§1) The CH2C variants were expressed as Fc fusions to Fab fragments by cloning into an expression vector containing an anti-BACE1 benchmark variable region sequence.

| Binder | binding result | EC50 (read off the curve) [µM] |
| --- | --- | --- |
| B1 | binds | – |
| B2 | binds | – |
| B3 | – | ~0.008 |
| B4 | binds | – |
| B5 | – | ~0.008 |
| B6 | binds | – |
| B7 | binds | – |
| B8 | binds | – |

Target: T2, human transferrin receptor (TfR) ectodomain (ECD) (human, UniProt P02786 121-760, biotinylated where captured on streptavidin)
T2 construct: also called human TfR; huTfR
Experiment: ELISA, Fc-Fab fusion titrated on plate-coated human TfR; OD650
Source text: as §1

| Binder | binding result |
| --- | --- |
| B1 | binds |
| B2 | binds |
| B4 | binds |
| B5 | binds |
| B6 | no binding (tested: 1000 nM) |
| B7 | binds |
| B8 | binds |

Target: T2, human transferrin receptor (TfR) …
Experiment: SPR (Biacore), same protocol as previously described; form of human TfR not stated
Target sequence in this assay (P02786 121-760): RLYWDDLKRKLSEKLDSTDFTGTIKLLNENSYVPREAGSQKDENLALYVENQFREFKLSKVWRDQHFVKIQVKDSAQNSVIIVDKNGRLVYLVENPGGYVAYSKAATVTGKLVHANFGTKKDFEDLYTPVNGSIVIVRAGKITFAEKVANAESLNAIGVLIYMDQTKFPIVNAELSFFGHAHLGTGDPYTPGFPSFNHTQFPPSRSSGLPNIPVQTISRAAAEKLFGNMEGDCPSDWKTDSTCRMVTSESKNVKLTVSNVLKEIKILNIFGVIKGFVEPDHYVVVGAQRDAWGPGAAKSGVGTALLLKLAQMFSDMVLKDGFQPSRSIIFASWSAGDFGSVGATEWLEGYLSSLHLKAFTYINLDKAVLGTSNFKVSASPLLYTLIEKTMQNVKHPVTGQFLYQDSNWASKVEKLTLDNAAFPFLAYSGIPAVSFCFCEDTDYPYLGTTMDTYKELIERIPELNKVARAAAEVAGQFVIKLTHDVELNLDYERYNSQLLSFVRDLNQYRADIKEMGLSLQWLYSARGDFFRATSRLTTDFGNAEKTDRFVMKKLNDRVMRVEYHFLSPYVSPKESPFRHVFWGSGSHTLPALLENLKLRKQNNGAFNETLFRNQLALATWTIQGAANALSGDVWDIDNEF

| Binder | Kd [µM] |
| --- | --- |
| B9 | 2 |
| B10 | 0.62 |
| B11 | 2.1 |
| B12 | 0.69 |
| B13 | 0.75 |
| B14 | 1.7 |
| B15 | 1.9 |

Target: streptavidin (Natural streptavidin is a homotetramer; one chain is given.)
Experiment: phage ELISA, phage dilution series on plate-coated streptavidin; OD650

| Binder | binding result |
| --- | --- |
| B16 | no binding (tested: dilution 1 (least diluted phage)) |
| B17 | no binding (tested: dilution 1 (least diluted phage)) |

Target: T1, cynomolgus transferrin receptor (TfR) …
Experiment: ELISA, Fc-Fab fusion (dimer format) titrated on plate-coated cyno TfR; OD650

| Binder | EC50 (read off the curve) [µM] | binding result |
| --- | --- | --- |
| B18 | ~0.003 | – |
| B19 | – | binds |
| B20 | – | binds |
| B21 | – | binds |
| B22 | ~0.002 | – |
| B23 | – | binds |
| B24 | – | binds |
| B25 | – | binds |

Target: T2, human transferrin receptor (TfR) …
Experiment: ELISA, Fc-Fab fusion (dimer format) titrated on plate-coated human TfR; OD650
Protocol: Fc regions comprising the CH3B clone sequences were fused to Fab fragments and were assayed in a dimer format.

| Binder | EC50 (read off the curve) [µM] | binding result |
| --- | --- | --- |
| B18 | ~0.004 | – |
| B19 | – | binds |
| B20 | – | binds |
| B21 | – | binds |
| B22 | ~0.004 | – |
| B23 | – | binds |
| B24 | – | binds |
| B25 | – | binds |

Target: T2, human transferrin receptor (TfR) …
Experiment: phage ELISA, phage dilution series on plate-coated human TfR without and with holo-Tf; OD650
Source text: as §1
Target sequence in this assay (P02786 121-760): as above

| Binder | binding result |
| --- | --- |
| B16 | binds |
| B17 | binds |

Target: T2, human transferrin receptor (TfR) …
Experiment: as above
Remark: another data set of the same source
Target sequence in this assay (P02786 121-760): as above

| Binder | binding result |
| --- | --- |
| B26 | binds |
| B27 | binds |
